Results on nine molecules are retold here after US20240343803A1 (SHANDONG SIMCERE BIOPHARMACEUTICAL, published 2024).

Substitutions are numbered along the chain they refer to.

To fix the notation:
B1: TIGIT-006-H1L1 (antibody, V domains shown)
VH: EVQLQESGPGLVKPSETLSLTCAVSGYSITSDYWNWIRQPPGKGLEWIGYISYSGRTYYNPSLKSRVTISRDTSKNQFSLKLSSVTAADTAVYYCARGDYSNYGGAMYDWGQGTTVTVSS
VL: DIVMTQTPLSLSVTPGQPASISCRASQGVSTTIAWYLQKPGQSPQLLIYSASYRYTGVPDRFSGSGSGTDFTLKISRVEAEDVGVYYCQQYYSSPFTFGGGTKVEIK
notes: Humanized anti-TIGIT antibody
B2: TIGIT-006-H2L3 (antibody, V domains shown)
VH: B1 VH with I29M
VL: DIVMTQSPDSLAVSLGERATINCRASQGVSTTIAWYQQKPGQSPKLLIYSASYRYTGVPRFSGSGSGTDFTLTISSLQAEDVAVYYCQQYYSSPFTFGGGTKVEIK
notes: Humanized anti-TIGIT antibody
B3: TIGIT-006-H5L2 (antibody, V domains shown)
VH: B1 VH with I29M, G44K, W47Y
VL: B1 VL with L37Q, Q45K
notes: Humanized anti-TIGIT antibody
B4: TIGIT-006-H3L2 (antibody, V domains shown)
VH: B1 VH with I29M, G44K
VL: B1 VL with L37Q, Q45K
notes: Humanized anti-TIGIT antibody
B5: TIGIT-006-H2L1 (antibody, V domains shown)
VH: B1 VH with I29M
VL: B1 VL
notes: Humanized anti-TIGIT antibody
B6: TIGIT-006-H3L3 (antibody, V domains shown)
VH: B1 VH with I29M, G44K
VL: B2 VL
notes: Humanized anti-TIGIT antibody
B7: TIGIT-006-H1L2 (antibody, V domains shown)
VH: B1 VH
VL: B1 VL with L37Q, Q45K
notes: Humanized anti-TIGIT antibody
B8: TIGIT-006-H5L1 (antibody, V domains shown)
VH: B1 VH with I29M, G44K, W47Y
VL: B1 VL
notes: Humanized anti-TIGIT antibody
B9: TIGIT-006-H1L3 (antibody, V domains shown)
VH: B1 VH
VL: B2 VL
notes: Humanized anti-TIGIT antibody

One assay deals with T1, Fusion protein of extracellular domain of human TIGIT and His-tag (human TIGIT ECD-his) (human).
T1 chain: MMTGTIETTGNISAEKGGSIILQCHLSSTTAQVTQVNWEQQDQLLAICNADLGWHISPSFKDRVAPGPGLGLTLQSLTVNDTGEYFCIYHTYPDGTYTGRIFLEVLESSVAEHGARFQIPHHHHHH
Put plainly: BIAcore. For orientation: Surface plasmon resonance follows binding to a sensor surface in real time, without labels.
As to B1, the equilibrium dissociation constant (Kd) (in general, a measure of binding affinity in units of concentration) was 6.21 nM; the koff – broadly, a measure of how fast the partners let go of each other – came out at 0.000757 s⁻¹; the kon (in general, the rate constant with which the complex forms) is 122000 M⁻¹ s⁻¹.

B2: the Kd turned out to be 0.515 nM, the off-rate constant (koff) was 0.000216 s⁻¹ and the association rate constant (kon) was 420000 M⁻¹ s⁻¹.

B3 gave a Kd of 0.08 nM, a koff of 0.000184 s⁻¹ and a kon of 2.3e+06 M⁻¹ s⁻¹.

As to B4, the affinity, expressed as Kd, was 0.748 nM; the koff came to 0.000208 s⁻¹; the kon is 279000 M⁻¹ s⁻¹.

Molecule B5 had a dissociation constant Kd of 0.95 nM, a koff of 0.000382 s⁻¹ and a kon of 403000 M⁻¹ s⁻¹.

In turn, B6 displayed a Kd of 0.482 nM, an off-rate (koff) of 0.000176 s⁻¹ and a kon of 365000 M⁻¹ s⁻¹.

B7 showed a Kd of 5.71 nM, an off-rate constant (koff) of 0.000666 s⁻¹ and a kon of 117000 M⁻¹ s⁻¹.

B8: binding was characterised by a dissociation constant (Kd) of 0.0713 nM, the koff stood at 0.000163 s⁻¹ and the on-rate constant (kon) worked out at 2.29e+06 M⁻¹ s⁻¹.

The molecule B9 registered a Kd of 2.66 nM, a koff of 0.000384 s⁻¹ and an on-rate constant (kon) of 144000 M⁻¹ s⁻¹.

In a further assay the target is T2, Fusion protein of extracellular domain of cynomolgus monkey TIGIT and mouse IgG2a Fc fragment (cynomolgus … (cynomolgus monkey)).
T2 construct: The entry includes the signal peptide (limits not recoverable) and the mouse IgG2a Fc
Put plainly: ELISA, cynomolgus monkey TIGIT ECD-mFc. The essentials: (§1)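 Plates blocked with 5% skim milk-PBS at 37° C for 2-4 h. Test antibodies applied as a 12-point 3-fold series from 13 nM for 1.5-2 h at 37° C. Read-out: HRP secondary (1:5000, 1 h, 37° C), TMB colour for 7-10 min at room temperature, acid stop, absorbance at OD450 nm.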
On to B1, for which the binding result was “no binding”.

Turning to B2, the half-maximal effective concentration (EC50) (commonly the concentration needed to bring the measured effect to its halfway point) is 24.4 nM.

With B3, the midpoint of the response, the EC50, lay at 0.0172 nM.

In the case of B4, it took 7.44 nM to reach a half-maximal effect (EC50).

In the case of B5, the EC50 amounted to 2.88 nM.

In the case of B6, the EC50 turned out to be 0.779 nM.

For the molecule B7, the binding result is “no binding”.

Molecule B8 returned a concentration giving a half-maximal response (EC50) of 0.0182 nM.

B9: the binding result was “no binding”.

The next assay deals with T3, Fusion protein of extracellular domain of human TIGIT and mouse IgG2a Fc fragment (human TIGIT ECD-mFc) (human).
T3 construct: The entry includes the signal peptide (limits not recoverable) and the mouse IgG2a Fc
T3 chain: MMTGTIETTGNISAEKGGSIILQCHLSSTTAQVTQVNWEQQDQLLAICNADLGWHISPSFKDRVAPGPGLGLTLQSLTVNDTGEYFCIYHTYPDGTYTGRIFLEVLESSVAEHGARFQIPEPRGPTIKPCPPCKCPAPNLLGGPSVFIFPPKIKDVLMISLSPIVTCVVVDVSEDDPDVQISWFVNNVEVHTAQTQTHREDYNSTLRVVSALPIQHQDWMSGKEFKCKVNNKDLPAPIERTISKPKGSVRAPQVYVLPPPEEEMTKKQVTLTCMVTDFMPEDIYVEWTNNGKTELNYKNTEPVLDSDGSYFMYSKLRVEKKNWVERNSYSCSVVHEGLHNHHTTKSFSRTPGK
As to the kind of experiment: ELISA, human TIGIT ECD-mFc. The essentials: as §1
(In general: In an ELISA, binding on a coated surface is turned into a signal by an enzyme label.)
For B1, the concentration for a half-maximal effect (EC50) amounted to 0.0186 nM.

Take B2: the half-maximal effective concentration (EC50) came to 0.0103 nM.

For the molecule B3, the EC50 was found to be 0.0111 nM.

Turning to B4, the 50% effective concentration (EC50) amounted to 0.0099 nM.

B5 gave an EC50 of 0.0106 nM.

Consider B6, for which the concentration giving a half-maximal response (EC50) amounted to 0.0095 nM.

In turn, B7 came in with an EC50 of 0.0183 nM.

For B8, the 50% effective concentration (EC50) was 0.0108 nM.

As for B9, a half-maximal response (EC50) required 0.0185 nM.

Another assay addresses T4, Full-length human TIGIT on CHO-K1 cells (CHO-K1 human TIGIT) (human, UniProt Q495A1 22-244).
T4 construct: NCBI XP_024309156.1; the entry includes the signal peptide (limits not recoverable); The strain (high, medium, low) is named under assay; also called high expression strain 1D2; medium expression strain 2D10
T4 sequence: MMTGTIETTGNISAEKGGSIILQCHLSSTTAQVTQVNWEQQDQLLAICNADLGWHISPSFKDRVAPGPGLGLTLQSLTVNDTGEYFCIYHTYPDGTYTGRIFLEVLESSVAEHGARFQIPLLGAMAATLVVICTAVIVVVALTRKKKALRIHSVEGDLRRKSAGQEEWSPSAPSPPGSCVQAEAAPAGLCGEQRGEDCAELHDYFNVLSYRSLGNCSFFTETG
Put plainly: cell binding, CHO-K1 human TIGIT high expression strain. The method, boiled down: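 Binding was measured by flow cytometry after a 60-minute, 4° C incubation of the antibodies with 2×10⁵ CHO-K1 cells displaying full-length human or cynomolgus monkey TIGIT. Antibody titration: 12 points, threefold serial dilution from 80 nM, in 1% BSA-PBS.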
B1 gave an EC50 of 0.0702 nM.

B2 had a 50% effective concentration (EC50) of 0.0353 nM.

Molecule B3 registered a concentration for a half-maximal effect (EC50) of 0.0239 nM.

In turn, B4 had an EC50 of 0.0494 nM.

B5 came in with a 50% effective concentration (EC50) of 0.0383 nM.

Take B6: the EC50 is 0.0317 nM.

In turn, B7 had an EC50 of 0.105 nM.

On to B8, for which the half-maximal effective concentration (EC50) stood at 0.0399 nM.

For the molecule B9, the EC50 amounted to 0.0596 nM.

A further assay deals with T5, Fusion protein of extracellular domain of human TIGIT and human IgG1 Fc fragment (human TIGIT ECD-hFc) (human).
T5 construct: The entry includes the signal peptide (limits not recoverable) and the human IgG1 Fc
T5 sequence (chain, as listed by the source limits assumed): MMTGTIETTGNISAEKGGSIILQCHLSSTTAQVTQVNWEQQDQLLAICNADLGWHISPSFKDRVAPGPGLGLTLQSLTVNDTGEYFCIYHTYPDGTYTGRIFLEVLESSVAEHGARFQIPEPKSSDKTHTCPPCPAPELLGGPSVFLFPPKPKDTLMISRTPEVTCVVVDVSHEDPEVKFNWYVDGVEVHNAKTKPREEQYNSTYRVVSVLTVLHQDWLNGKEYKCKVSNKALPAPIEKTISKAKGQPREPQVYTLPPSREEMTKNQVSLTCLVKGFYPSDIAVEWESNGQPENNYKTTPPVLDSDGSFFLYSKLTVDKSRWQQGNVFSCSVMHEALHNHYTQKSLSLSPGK
As to the kind of experiment: blocking of TIGIT ECD-hFc binding to CHO-K1 CD155 cells. The method, boiled down:
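The inhibition curves from which IC50 was calculated were generated by cell-based ELISA. Fixed CHO-K1 CD155 cells, blocked with 5% skim milk-PBS, were incubated at 37° C for 1.5-2 h with antibodies that had been premixed for 0.5 h with human TIGIT ECD-hFc at a working concentration of 30 ng/mL. Detection of bound TIGIT used HRP secondary antibody at 1:5000 for 1 h at 37° C, followed by TMB and reading as OD450 nm.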
Regarding B1, the IC50 (in general, the midpoint of a concentration-inhibition curve) is 1.53 nM.

In turn, B2 displayed an IC50 of 0.633 nM.

The molecule B3 had a half-inhibitory concentration (IC50) of 0.576 nM.

Regarding B4, the IC50 was determined as 0.709 nM.

B5 had a half-maximal inhibitory concentration (IC50) of 0.528 nM.

As to B6, the half-maximal inhibitory concentration (IC50) was 0.681 nM.

For the molecule B7, the IC50 came to 1.58 nM.

As to B8, the 50% inhibitory concentration (IC50) turned out to be 0.537 nM.

Turning to B9, the half-inhibitory concentration (IC50) came to 1.23 nM.

For another assay, the target named is T1, Fusion protein of extracellular domain …. As to the kind of experiment: BIAcore; KD ratio to TIGIT-CHI-006.
As to B1, the “Fold change vs chimeric antibodies (KD)” value came to 80.3 fold.

Regarding B2, the “Fold change vs chimeric antibodies (KD)” value worked out at 6.65 fold.

Regarding B3, the “Fold change vs chimeric antibodies (KD)” value is 1.03 fold.

With B4, the “Fold change vs chimeric antibodies (KD)” value was found to be 9.66 fold.

Take B5: the “Fold change vs chimeric antibodies (KD)” value came to 12.3 fold.

B6: the “Fold change vs chimeric antibodies (KD)” value is 6.23 fold.

For the molecule B7, the “Fold change vs chimeric antibodies (KD)” value was found to be 73.8 fold.

On to B8, for which the “Fold change vs chimeric antibodies (KD)” value was determined as 0.92 fold.

For the molecule B9, the “Fold change vs chimeric antibodies (KD)” value turned out to be 34.4 fold.

Another assay deals with T6, Full-length cynomolgus monkey TIGIT on CHO-K1 cells (CHO-K1 cynomolgus monkey TIGIT) (cynomolgus monkey).
T6 construct: NCBI XP_015300911.1
T6 sequence (chain, as listed by the source limits assumed): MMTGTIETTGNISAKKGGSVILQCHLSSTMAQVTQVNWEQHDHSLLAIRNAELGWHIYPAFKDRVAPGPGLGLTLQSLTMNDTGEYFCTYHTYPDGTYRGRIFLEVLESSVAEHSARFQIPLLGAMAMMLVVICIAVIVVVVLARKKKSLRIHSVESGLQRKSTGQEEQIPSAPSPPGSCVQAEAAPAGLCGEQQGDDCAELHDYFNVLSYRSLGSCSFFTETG
Put plainly: cell binding, CHO-K1 cynomolgus monkey TIGIT. On the procedure:
The collected cells were washed once with PBS (Hyclone, CAT #SH30256), resuspended to 2×10⁵/50 μL with 1% BSA-PBS. The antibodies were diluted to 80 nM with 1% BSA-PBS (diluted by 3-fold serial dilution for 12 concentration points). The 50 μL cells were then mixed with 50 μL diluted antibodies, and then incubated at 4° C. for 60 minutes. […] After washing twice with PBS, the cell samples were resuspended with 1% BSA-PBS, 100 μL/well and then analyzed by flow cytometry (BD, Canto II). […] [0298] (c) The effect of anti-TIGIT chimeric antibodies blocking the interaction between Bio-CD155-His and CHO-K1 human TIGIT high expression cell strains detected by FACS
The affinity of the above humanized antibodies with human TIGIT ECD-His is detected by BIAcore, and with reference to the methods of Example 4 (a), (b), and (d), the binding activity of the above humanized antibodies to human TIGIT ECD-mFc, CHO-K1 human TIGIT, CHO-K1 cynomolgus monkey TIGIT and cynomolgus monkey TIGIT ECD-mFc, and the effect of the humanized antibodies blocking the binding between human TIGIT ECD-mFc and CHO-K1 CD155 are detected, the results are shown in Table 18.
Take B1: the binding result is on record as “no binding”.

B2 displayed an EC50 of 0.255 nM.

Consider B3, for which a half-maximal effect (EC50) was put at 0.0849 nM.

B4 registered an EC50 of 1.38 nM.

On to B5, for which the half-maximal effective concentration (EC50) was found to be 0.342 nM.

Consider B6, for which the EC50 was found to be 6.29 nM.

As to B7, the binding result is listed as “no binding”.

As for B8, a half-maximal effect (EC50) was put at 0.162 nM.

On to B9, for which the binding result is on record as “no binding”.
